Key:
Experiment in all cases: ELISA screen
[1] = target: T1, full-length trimeric SARS-CoV-2 Spike protein (Spike-H6) (SARS-CoV-2, N-glycosylated (22 N-glycosylation sites))
T1 construct: also called trimeric Spike; full-length Spike-H6

[2] = target: T2, human recombinant soluble ACE2 (human, UniProt Q9BYF1 18-740)
T2 construct: also called hrsACE2

[3] = target: T3, monomeric SARS-CoV-2 receptor binding domain (RBD-H6) (SARS-CoV-2, UniProt P0DTC2 319-541)
T3 construct: Made in HEK293-6E cells; also called RBD Spike; monomeric RBD

T2 sequence (Q9BYF1 18-740 limits assumed): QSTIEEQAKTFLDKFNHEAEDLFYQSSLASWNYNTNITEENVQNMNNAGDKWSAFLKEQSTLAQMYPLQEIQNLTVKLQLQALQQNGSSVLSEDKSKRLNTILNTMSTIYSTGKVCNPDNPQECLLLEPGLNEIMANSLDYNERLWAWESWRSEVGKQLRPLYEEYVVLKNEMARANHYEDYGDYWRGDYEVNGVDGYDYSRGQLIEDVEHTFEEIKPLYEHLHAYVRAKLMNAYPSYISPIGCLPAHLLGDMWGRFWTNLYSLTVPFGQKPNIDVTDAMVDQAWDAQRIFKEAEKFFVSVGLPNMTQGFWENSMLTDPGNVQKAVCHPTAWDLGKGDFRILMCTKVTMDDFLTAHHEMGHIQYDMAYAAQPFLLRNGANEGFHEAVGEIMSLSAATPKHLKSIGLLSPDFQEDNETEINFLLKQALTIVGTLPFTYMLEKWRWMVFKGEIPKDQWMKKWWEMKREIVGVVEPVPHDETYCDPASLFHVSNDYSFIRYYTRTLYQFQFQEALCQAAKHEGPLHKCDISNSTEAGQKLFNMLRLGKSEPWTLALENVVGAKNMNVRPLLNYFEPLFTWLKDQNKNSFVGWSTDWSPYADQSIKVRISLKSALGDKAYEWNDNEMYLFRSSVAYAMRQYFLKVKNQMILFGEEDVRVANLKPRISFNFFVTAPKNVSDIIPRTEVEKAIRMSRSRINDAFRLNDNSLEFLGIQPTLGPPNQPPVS

Binder	Mean normalized OD [1]	Mean normalized OD [2]	Mean normalized OD [3]
Clec2h CRD-mouse IgG2a-Fc fusion protein (Fc fusion) FGSKCFYFSEDMGNWTFSQSSCVASNSHLALFHSLEELNFLKRYKGTSDHWIGLHRASTQHPWIWTDNTEYSNLVLTRGGGECGFLSDNGISSGRSYTHRKWICSGGGSGGGSGGGS	-0.387 OD	-0.707 OD	–
Ly75_4 CRD-mouse IgG2a-Fc fusion protein (Fc fusion) SSLSCYKVFHIERIVRKRNWEEAERFCQALGAHLPSFSRREEIKDFVHLLKDQFSGQRWLWIGLNKRSPDLQGSWQWSDRTPVSAVMMEPEFQQDFDIRDCAAIKVLDVPWRRVWHLYEDKDYAYWKPFACDAKLEWVCQGGGSGGGSGGGS	-0.014 OD	-0.004 OD	0.007 OD
Klrk1 CRD-mouse IgG2a-Fc fusion protein (Fc fusion) HRNNCYQFFNEEKTWNQSQASCLSQNSSLLKIYSKEEQDFLKLVKSYHWMGLVQIPANGSWQWEDGSSLSYNQLTLVEIPKGSCAVYGSSFKAYTEDCANLNTYICMGGGSGGGSGGGS	0 OD	-0.003 OD	0 OD
Ly75_2 CRD-mouse IgG2a-Fc fusion protein (Fc fusion) NNGFCYLLANESSSWDAAHLKCKAFGADLISMHSLADVEVVVTKLHNGDVKKEIWTGLKNTNSPALFQWSDGTEVTLTYWNENEPSVPFNKTPNCVSYLGKLGQWKVQSCEKKLRYVCKGGGSGGGSGGGS	-0.319 OD	-0.135 OD	–
Siglec10 CRD-mouse IgG2a-Fc fusion protein (Fc fusion) VQRIVKAQEGLCIFVPCSFSSPEGKWLNRSPLYGYWFKGIRKPSLSFPVATNNKDKVLEWEARGRFQLLGDISKKNCSLLIKDVQWGDSTNYFFRMERGFERFSFKEEFRLQVGGGSGGGSGGGS	0.046 OD	–	0.015 OD
Bcan CRD-mouse IgG2a-Fc fusion protein (Fc fusion) not shown	-0.111 OD	-0.538 OD	–
Cd209b CRD-mouse IgG2a-Fc fusion protein (Fc fusion) FLLGNCYFFSKSQRNWNDAVTACKEVKAQLVIINSDEEQTFLQQTSKAKGPTWMGLSDLKKEATWLWVDGSTLSSRFQKYWNRGEPNNIGEEDCVEFAGDGWNDSKCELKKFWICKGGGSGGGSGGGS	-0.032 OD	-0.094 OD	0.113 OD
Clec2i CRD-mouse IgG2a-Fc fusion protein (Fc fusion) VGNKCFYFSGYPRNWTFAQAFCMAQEAQLARFDNEEELIFLKRFKGDFDCWIGLHRESSEHPWKWTNNTEYNNMNPILGVGRYAYLSSDRISSSRSYINRMWICSGGGSGGGSGGGS	-0.61 OD	-0.249 OD	–
Ly75_3 CRD-mouse IgG2a-Fc fusion protein (Fc fusion) KDAESDKLCPPDEGWKRHGETCYKIYEKEAPFGTNCNLTITSRFEQEFLNYMMKNYDKSLRKYFWTGLRDPDSRGEYSWAVAQGVKQAVTFSNWNFLEPASPGGCVAMSTGKTLGKWEVKNCRSFRALSICKKGGGSGGGSGGGS	0.002 OD	-0.003 OD	0.001 OD
Clec2g CRD-mouse IgG2a-Fc fusion protein (Fc fusion) VGNKCFYFSEYTSNWTFAQTFCMAQEAQLARFDNEKELNFLMRYKANFDSWIGLHRESSEHPWKWTDNTEYNNMIPIQGVETCAYLSGNGISSSRHYIPRIWICSGGGSGGGSGGGS	-0.241 OD	-0.722 OD	–
Ncan CRD-mouse IgG2a-Fc fusion protein (Fc fusion) not shown	-0.09 OD	-0.589 OD	–
Clec5a CRD-mouse IgG2a-Fc fusion protein (Fc fusion) HQGKCFFFSFSESPWKDSMDYCATQGSTLAIVNTPEKLKYLQDIAGIENYFIGLVRQPGEKKWRWINNSVFNGNVTNQDQNFDCVTIGLTKTYDAASCEVSYRWICEGGGSGGGSGGGS	0 OD	-0.005 OD	-0.001 OD
Atrnl1 CRD-mouse IgG2a-Fc fusion protein (Fc fusion) VGDACLRINSSRESYDNAKLYCYNLSGNLASLTTSKEVEFVLDEIQKFTQQKVSPWVGLRKINISYWGWEDMSPFTNTSLQWLPGEPNDSGFCAYLERAAVAGLKANPCTSMADGLVCEGGGSGGGSGGGS	0.001 OD	-0.003 OD	0.001 OD
Klre1 CRD-mouse IgG2a-Fc fusion protein (Fc fusion) FRCSCYFFSKEELIWRDSQRACLSLNSSLIRMNKEEMNFFSLKSFFWVGVYYNETRRQWLWEDHSVLPSGLFSKLEANMKNFCASYKSKEAYMEENCANKLTYICKGGGSGGGSGGGS	-0.002 OD	-0.006 OD	0.045 OD
Klri1 CRD-mouse IgG2a-Fc fusion protein (Fc fusion) FGNNFYCVFKENTKTWAESQSACEELNSHLVIIDSKAEVENLLLFEMDGWILHKMDGTNSSWLWRNDIKIQNTLTNDSEKKNHSCHYLRGNLFMPDECSAKKSYICEGGGSGGGSGGGS	0.002 OD	-0.003 OD	0.001 OD
Lgalsl CRD-mouse IgG2a-Fc fusion protein (Fc fusion) PFCGHIKGGMRPGKKVLVMGIVDLNPESFAISLTCGDSEDPPADVAIELKAVFTDRQLLRNSCISGERGEEQSAIPYFPFIPDQPFRVEILCEHPRFRVFVDGHQLFDFYHRIQTLSAIDTIKINGDLQIGGGSGGGSGGGS	0.006 OD	-0.004 OD	0.001 OD
Lgals9_2 CRD-mouse IgG2a-Fc fusion protein (Fc fusion) FYTPIPNGLYPSKSIMISGNVLPDATRFHINLRCGGDIAFHLNPRFNENAVVRNTQINNSWGQEERSLLGRMPFSRGQSFSVWIICEGHCFKVAVNGQHMCEYYHRLKNLQDINTLEVAGDIQLTHVQTGGGSGGGSGGGS	0.056 OD	–	0.033 OD
Layn CRD-mouse IgG2a-Fc fusion protein (Fc fusion) TRRPCYKVIYFHDAFQRLNFEEAKETCMEDGGQLVSIETEDEQRLIEKFIENLLASDGDFWIGLKRLEEKQSNNTACQDLYAWTDGSTSQFRNWYVDEPSCGSEVCVVMYHQPSAPPGIGGSYMFQWNDDRCNMKNNFICKGGGSGGGSGGGS	0.002 OD	-0.005 OD	0 OD
Clec7a CRD-mouse IgG2a-Fc fusion protein (Fc fusion) HGKSCYLFSFSGNSWYGSKRHCSQLGAHLLKIDNSKEFEFIESQTSSHRINAFWIGLSRNQSEGPWFWEDGSAFFPNSFQVRNTAPQESLLHNCVWIHGSEVYNQICNTSSYSICEGGGSGGGSGGGS	0 OD	-0.001 OD	0.004 OD
Ly75_10 CRD-mouse IgG2a-Fc fusion protein (Fc fusion) YGGHCYASDQVLHSFSEAKQVCQELDHSATVVTIADENENKFVSRLMRENYNITMRVWLGLSQHSLDQSWSWLDGLDVTFVKWENKTKDGDGKCSILIASNETWRKVHCSRGYARAVCKIGGGSGGGSGGGS	-0.002 OD	-0.02 OD	0.014 OD
Ly75_5 CRD-mouse IgG2a-Fc fusion protein (Fc fusion) IEGSEYWFVADPHLNYEEAVLYCASNHSFLATITSFTGLKAIKNKLANISGEEQKWWVKTSENPIDRYFLGSRRRLWHHFPMTFGDECLHMSAKTWLVDLSKRADCNAKLPFICEGGGSGGGSGGGS	-0.17 OD	-0.106 OD	–
Klrg1 CRD-mouse IgG2a-Fc fusion protein (Fc fusion) NGSHCYYFSMEKKDWNSSLKFCADKGSHLLTFPDNQGVKLFGEYLGQDFYWIGLRNIDGWRWEGGPALSLRILTNSLIQRCGAIHRNGLQASSCEVALQWICKGGGSGGGSGGGS	0.003 OD	-0.843 OD	0.003 OD
Colec12 CRD-mouse IgG2a-Fc fusion protein (Fc fusion) FTDKCYYFSLEKEIFEDAKLFCEDKSSHLVFINSREEQQWIKKHTVGRESHWIGLTDSEQESEWKWLDGSPVDYKNWKAGQPDNWGSGHGPGEDCAGLIYAGQWNDFQCDEINNFICEGGGSGGGSGGGS	0.04 OD	–	0.027 OD
Ly75_1 CRD-mouse IgG2a-Fc fusion protein (Fc fusion) QIGSCYQFNNQEILSWKEAYVSCQNQGADLLSIHSAAELAYITGKEDIARLVWLGLNQLYSARGWEWSDFRPLKFLNWDPGTPVAPVIGGSSCARMDTESGLWQSVSCESQQPYVCKGGGSGGGSGGGS	-0.434 OD	-0.571 OD	–
Klrb1c CRD-mouse IgG2a-Fc fusion protein (Fc fusion) HRDKCFHVSQVSNTWEEGQADCGRKGATLLLIQDQEELRFLLDSIKEKYNSFWIGLRFTLPDMNWKWINGTTFNSDVLKITGVTENGSCASILGDKVTPESCASDNRWICQGGGSGGGSGGGS	0.001 OD	-0.004 OD	0.004 OD
Klrg2 CRD-mouse IgG2a-Fc fusion protein (Fc fusion) SQEQCYYLSEEAQDWEGSQAFCSAHHATLPLLSHTQDFLRKYRITKGSWVGARRGPEGWHWTDGVPLPYQLFPADSEDHPDFSCGGLEEGRLVALDCSSPRPWVCAGGGSGGGSGGGS	-0.044 OD	-0.013 OD	0.043 OD
Vcan CRD-mouse IgG2a-Fc fusion protein (Fc fusion) not shown	0.064 OD	–	0.052 OD
Lgals6_2 CRD-mouse IgG2a-Fc fusion protein (Fc fusion) YVGALQGGFTVRRTIIIKGYVLPTAKTFAINFRVGSSEDIALHINPRIGDCLVRNSYMNGSWGTEERMVAYNPFGPGQFFDLSIRCGMDRFKVFANGIHLFNFSHRFQALRKINTLEINGDLTLSYVHIGGGSGGGSGGGS	0.135 OD	–	–
Clec6a CRD-mouse IgG2a-Fc fusion protein (Fc fusion) FGSSCYLISTKENFWSTSEQNCVQMGAHLVVINTEAEQNFITQQLNESLSYFLGLSDPQGNGKWQWIDDTPFSQNVRFWHPHEPNLPEERCVSIVYWNPSKWGWNDVFCDSKHNSICEGGGSGGGSGGGS	0.003 OD	-0.032 OD	0.029 OD

Reference: patent EP4039268A1 (IMBA-Institut für Molekulare Biotechnologie GmbH, dated 2022)
